Test results from the supplement of paper PMC10567573.

B1: CAMK2D (parent)
chain: LLKHPNIVRLHDSISEEGFHYLVF

Variants of: B1
Experiment: protein stability index of a GFP-peptide fusion (GPS, HEK-293T) (PSI 1-6); higher = more stable
Conditions: c terminus: a fixed tail appended
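Note: lentivirally expressed fusions sorted by FACS into six bins by GFP to DsRed ratio, PSI derived from sequencing read proportions per bin multiplied by bin number.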

Point of comparison: LLKHPNIVRLHDSISNEGFHYLVF, protein stability index 2.87. Against it:
- LLKHPNIVRLHDSISEEGFMYLVF — lower, 2.05
- LLKHPNIVRLHDSISEEGFAYLVF — lower, 1.73
- LLKHPNIVRLHDSISEEGFTYLVF — higher, 3.25
- LLKHPNIVRLHDSISEEGFRYLVF — lower, 2.08
- LLKHPNIVRLHDSISEEGFLYLVF — lower, 2.31
- LLKHPNIVRLHDSISEEGFSYLVF — lower, 2.75
- LLKHPNIVRLHDSISEEGFWYLVF — lower, 1.42
- LLKHPNIVRLHDSISEEGFQYLVF — lower, 2.65
- LLKHPNIVRLHDSISEEGFKYLVF — lower, 2.66
- LLKHPNIVRLHDSISEEGFVYLVF — higher, 3.17
- LLKHPNIVRLHDSISEEGFYYLVF — lower, 1.41
- LLKHPNIVRLHDSISEEGFIYLVF — higher, 3.5
- LLKHPNIVRLHDSISEEGFCYLVF — lower, 2.07
- LLKHPNIVRLHDSISEEGFEYLVF — higher, 3.1
- LLKHPNIVRLHDSISEEGFPYLVF — lower, 2.08
- LLKHPNIVRLHDSISEEGFDYLVF — lower, 1.96
- LLKHPNIVRLHDSISEEGFFYLVF — lower, 2.39
- LLKHPNIVRLHDSISEEGFHYSVF — lower, 1.81
- LLKHPNIVRLHDSISEEGFHYGVF — lower, 1.57
- LLKHPNIVRLHDSISEEGFHYAVF — higher, 3.02
- LLKHPNIVRLHDSISEEGFHYYVF — lower, 2.02
- LLKHPNIVRLHDSISEEGFHYQVF — lower, 1.3
- LLKHPNIVRLHDSISEEGFHYCVF — lower, 2.18
- LLKHPNIVRLHDSISEEGFHYRVF — lower, 1.28
- LLKHPNIVRLHDSISEEGFHYKVF — lower, 2.54
- LLKHPNIVRLHDSISEEGFHYTVF — lower, 2.39
- LLKHPNIVRLHDSISEEGFHYHVF — lower, 2.19
- LLKHPNIVRLHDSISEEGFHYVVF — lower, 1.03
- LLKHPNIVRLHDSISEEGFHYWVF — lower, 1.88
- LLKHPNIVRLHDSISEEGFHYIVF — higher, 2.96
- LLKHPNIVRLHDSISEEGFHYMVF — lower, 2.59
- LLKHPNIVRLHDSISEEGFHYNVF — lower, 1.75
- LLKHPNIVRLHDSISEEGFHYFVF — lower, 2.36
- LLKHPNIVRLHDSISEEGFHYDVF — lower, 2.08
- LLKHPNIVRLHDSISEEGFHYPVF — lower, 1.81
- LLKHPNIVRLHDSISEEGFHYEVF — lower, 2.22
- LLKHPNIVRLHDSGSEEGFHYLVF — lower, 1.64
- LLKHPNIVRLHDSNSEEGFHYLVF — lower, 2.05
- LLKHPNIVRLHDSDSEEGFHYLVF — lower, 1.64
- LLKHPNIVRLHDSTSEEGFHYLVF — lower, 1.91
- LLKHPNIVRLHDSYSEEGFHYLVF — lower, 1.89
- LLKHPNIVRLHDSKSEEGFHYLVF — lower, 2.4
- LLKHPNIVRLHDSHSEEGFHYLVF — lower, 1.11
- LLKHPNIVRLHDSRSEEGFHYLVF — lower, 1.75
- LLKHPNIVRLHDSMSEEGFHYLVF — lower, 1.18
- LLKHPNIVRLHDSQSEEGFHYLVF — lower, 1.78
- LLKHPNIVRLHDSWSEEGFHYLVF — lower, 1.4
- LLKHPNIVRLHDSSSEEGFHYLVF — lower, 2.15
- LLKHPNIVRLHDSCSEEGFHYLVF — lower, 2.44
- LLKHPNIVRLHDSPSEEGFHYLVF — lower, 2.74
- LLKHPNIVRLHDSESEEGFHYLVF — lower, 2.8
- LLKHPNIVRLHDSVSEEGFHYLVF — lower, 2.11
- LLKHPNIVRLHDSASEEGFHYLVF — lower, 1.66
- LLKHPNIVRLHDSISEEGFHYLHF — lower, 2.57
- LLKHPNIVRLHDSISEEGFHYLNF — higher, 3.14
- LLKHPNIVRLHDSISEEGFHYLAF — lower, 2.81
- LLKHPNIVRLHDSISEEGFHYLFF — lower, 1.91
- LLKHPNIVRLHDSISEEGFHYLEF — lower, 1.38
- LLKHPNIVRLHDSISEEGFHYLMF — higher, 2.91
- LLKHPNIVRLHDSISEEGFHYLDF — lower, 2.19
- LLKHPNIVRLHDSISEEGFHYLKF — lower, 1.68
- LLKHPNIVRLHDSISEEGFHYLGF — lower, 2.12
- LLKHPNIVRLHDSISEEGFHYLLF — lower, 2
- LLKHPNIVRLHDSISEEGFHYLIF — lower, 1.99
- LLKHPNIVRLHYSISEEGFHYLVF — lower, 2.35
- LLKHPNIVRLHVSISEEGFHYLVF — lower, 2.63
- LLKHPNIVRLHDSITEEGFHYLVF — lower, 1.3
- LLKHPNIVRLHDSIGEEGFHYLVF — lower, 1.8
- LLKHPNIVRLHDSIMEEGFHYLVF — higher, 3.4
- LLKHPNIVRLHDSIVEEGFHYLVF — lower, 2.2
- LLKHPNIVRLHDSIYEEGFHYLVF — lower, 2.34
- LLKHPNIVRLHDSIEEEGFHYLVF — lower, 2.57
- LLKHPNIVRLHDSIPEEGFHYLVF — lower, 2.27
- LLKHPNIVRLHDSIKEEGFHYLVF — lower, 2.45
- LLKHPNIVRLHDSIIEEGFHYLVF — higher, 3.54
- LLKHPNIVRLHDSILEEGFHYLVF — lower, 2.19
- LLKHPNIVRLHDSIAEEGFHYLVF — lower, 2.19
- LLKHPNIVRLHDSICEEGFHYLVF — lower, 2.51
- LLKHPNIVRLHDSIWEEGFHYLVF — higher, 3.22
- LLKHPNIVRLHDSIHEEGFHYLVF — lower, 2.1
- LLKHPNIVRLHDSINEEGFHYLVF — lower, 2.31
- LLKHPNIVRLHDSIDEEGFHYLVF — lower, 1.44
- LLKHPNIVRLHDSIREEGFHYLVF — lower, 2.66
- LLKHPNIVRLHDSIFEEGFHYLVF — lower, 2.56
- LLKHPNIVRLHDSISEEGYHYLVF — lower, 2.08
- LLKHPNIVRLHDSISEEGNHYLVF — lower, 2.03
- LLKHPNIVRLHDSISEEGWHYLVF — lower, 2.42
- LLKHPNIVRLHDSISEEGQHYLVF — lower, 2.66
- LLKHPNIVRLHDSISEEGTHYLVF — higher, 3.57
- LLKHPNIVRLHDSISEEGDHYLVF — lower, 1.73
- LLKHPNIVRLHDSISEEGVHYLVF — lower, 1.52
- LLKHPNIVRLHDSISEEGKHYLVF — higher, 3.11
- LLKHPNIVRLHDSISEEGMHYLVF — lower, 2.08
- LLKHPNIVRLHDSISEEGPHYLVF — lower, 1.53
- LLKHPNIVRLHDSISEEGRHYLVF — lower, 2.02
- LLKHPNIVRLHDSISEEGHHYLVF — lower, 1.73
- LLKHPNIVRLHDSISEEGIHYLVF — lower, 2.73
- LLKHPNIVRLHDSISEEGCHYLVF — lower, 1.37
- LLKHPNIVRLHDSISEEGGHYLVF — lower, 1.23
- LLKHPNIVRLHDSISEEGSHYLVF — lower, 1.45
- LLKHPNIVRLHDSISEEGAHYLVF — lower, 1.81
- LLKHPNIVRLHDSISEEGEHYLVF — lower, 2.38
- LLKHPNIVRLHDSISENGFHYLVF — higher, 3.79
- LLKHPNIVRLHDSISEWGFHYLVF — higher, 2.94
- LLKHPNIVRLHDSISEQGFHYLVF — lower, 1.84
- LLKHPNIVRLHDSISETGFHYLVF — lower, 2.31
- LLKHPNIVRLHDSISEHGFHYLVF — lower, 1.87
- LLKHPNIVRLHDSISEKGFHYLVF — lower, 2.71
- LLKHPNIVRLHDSISEPGFHYLVF — lower, 2.75
- LLKHPNIVRLHDSISELGFHYLVF — higher, 3.59
- LLKHPNIVRLHDSISEGGFHYLVF — lower, 2.8
- LLKHPNIVRLHDSISECGFHYLVF — higher, 2.99
- LLKHPNIVRLHDSISEYGFHYLVF — lower, 2.04
- LLKHPNIVRLHDSISESGFHYLVF — higher, 2.93
- LLKHPNIVRLHDSISEDGFHYLVF — lower, 2.66
- LLKHPNIVRLHDSISEFGFHYLVF — lower, 2.27
- LLKHPNIVRLHDSISEAGFHYLVF — higher, 2.91
- LLKHPNIVRLHDSISEVGFHYLVF — lower, 2.47
- LLKHPNIVRLHDSISEMGFHYLVF — higher, 4.04
- LLKHPNIVRLHDSISERGFHYLVF — lower, 2.11
- LLKHPNIVRLHDCISEEGFHYLVF — lower, 2.82
- LLKHPNIVRLHDPISEEGFHYLVF — lower, 2.75
- LLKHPNIVRLHDHISEEGFHYLVF — higher, 2.91
- LLKHPNIVRLHDAISEEGFHYLVF — higher, 3.1
- LLKHPNIVRLHDRISEEGFHYLVF — lower, 1.83
- LLKHPNIVRLHDDISEEGFHYLVF — lower, 2.46
- LLKHPNIVRLHDEISEEGFHYLVF — lower, 1.47
- LLKHPNIVRLHDGISEEGFHYLVF — lower, 2.59
- LLKHPNIVRLHDLISEEGFHYLVF — lower, 2.29
- LLKHPNIVRLHDFISEEGFHYLVF — lower, 1.5
- LLKHPNIVRLHDKISEEGFHYLVF — lower, 2.81
- LLKHPNIVRLHDWISEEGFHYLVF — lower, 1.84
- LLKHPNIVRLHDNISEEGFHYLVF — lower, 2.13
- LLKHPNIVRLHDQISEEGFHYLVF — lower, 1.7
- LLKHPNIVRLHDIISEEGFHYLVF — higher, 2.96
- LLKHPNIVRLHDYISEEGFHYLVF — higher, 2.94
- LLKHPNIVRLHDVISEEGFHYLVF — higher, 3.9
- LLKHPNIVRLHDSISREGFHYLVF — lower, 1.67
- LLKHPNIVRLHDSISDEGFHYLVF — lower, 1.67
- LLKHPNIVRLHDSISVEGFHYLVF — lower, 1.39
- LLKHPNIVRLHDSISWEGFHYLVF — lower, 1.92
- LLKHPNIVRLHDSISTEGFHYLVF — lower, 1.39
- LLKHPNIVRLHDSISKEGFHYLVF — lower, 1.21
- LLKHPNIVRLHDSISQEGFHYLVF — higher, 3.03
- LLKHPNIVRLHDSISAEGFHYLVF — higher, 2.88
- LLKHPNIVRLHDSISFEGFHYLVF — lower, 2.32
- LLKHPNIVRLHDSISSEGFHYLVF — lower, 1.19
- LLKHPNIVRLHDSISMEGFHYLVF — lower, 2.71
- LLKHPNIVRLHDSISPEGFHYLVF — lower, 1.62
- LLKHPNIVRLHDSISLEGFHYLVF — lower, 2.47
- LLKHPNIVRLHDSISCEGFHYLVF — lower, 2.3
- LLKHPNIVRLHDSISEEGFHSLVF — lower, 2.33
- LLKHPNIVRLHDSISEEGFHRLVF — lower, 2.63
- LLKHPNIVRLHDSISEEGFHQLVF — lower, 2.39
- LLKHPNIVRLHDSISEEGFHKLVF — lower, 1.8
- LLKHPNIVRLHDSISEEGFHELVF — lower, 2.32
- LLKHPNIVRLHDSISEEGFHTLVF — lower, 2.25
- LLKHPNIVRLHDSISEEGFHLLVF — lower, 1.97
- LLKHPNIVRLHDSISEEGFHILVF — lower, 1.79
- LLKHPNIVRLHDSISEEGFHCLVF — lower, 2
- LLKHPNIVRLHDSISEEGFHFLVF — higher, 2.92
- LLKHPNIVRLHDSISEEGFHHLVF — lower, 2.03
- LLKHPNIVRLHDSISEEGFHPLVF — lower, 1.96
- LLKHPNIVRLHDSISEEGFHNLVF — lower, 2.39
- LLKHPNIVRLHDSISEEGFHGLVF — lower, 2.37
- LLKHPNIVRLHDSISEEGFHALVF — lower, 1.38
- LLKHPNIVRLHDSISEEGFHWLVF — lower, 2.79
- LLKHPNIVRLHDSISEEGFHMLVF — lower, 2.58
- LLKHPNIVRLHDSISEEGFHDLVF — lower, 2.51
- LLKHPNIVRLHDSISEELFHYLVF — higher, 3.43
- LLKHPNIVRLHDSISEEKFHYLVF — higher, 3.36
- LLKHPNIVRLHDSISEEIFHYLVF — lower, 2
- LLKHPNIVRLHDSISEEAFHYLVF — higher, 3.26
- LLKHPNIVRLHDSISEEQFHYLVF — lower, 1.94
- LLKHPNIVRLHDSISEETFHYLVF — lower, 1.87
- LLKHPNIVRLHDSISEEFFHYLVF — lower, 2.73
- LLKHPNIVRLHDSISEERFHYLVF — higher, 3.12
- LLKHPNIVRLHDSISEEEFHYLVF — lower, 1.63
- LLKHPNIVRLHDSISEEHFHYLVF — lower, 1.78
- LLKHPNIVRLHDSISEEDFHYLVF — lower, 2.39
- LLKHPNIVRLHDSISEEPFHYLVF — lower, 2.03
- LLKHPNIVRLHDSISEESFHYLVF — lower, 2.3
- LLKHPNIVRLHDSISEEWFHYLVF — lower, 1.61
- LLKHPNIVRLHDSISEEYFHYLVF — lower, 1.8
- LLKHPNIVRLHDSISEENFHYLVF — lower, 1.5
- LLKHPNIVRLHDSISEECFHYLVF — lower, 1.98
- LLKHPNIVRLHDSISEEMFHYLVF — lower, 2.1
